Data taken from US20240270846A1 (published 2024).

These binders were tested against T1, CD3 epsilon homodimer protein (UniProt P07766 23-126) (assay: SPR Biacore T200, CD3 epsilon homodimer on chip, antibody as analyte;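 further: homodimer amine-coupled to a CM4 sensor chip, run at 25 °C in HBS-EP+ buffer, with kinetic parameters derived in Biacore T200 Evaluation Software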).
T1 construct: also called CD3 (CD3 epsilon)
T1 sequence (P07766 23-126): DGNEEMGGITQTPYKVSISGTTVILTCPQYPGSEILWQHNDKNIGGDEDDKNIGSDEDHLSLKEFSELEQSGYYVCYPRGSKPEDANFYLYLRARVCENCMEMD

Binder | KD ratio (KD of CE115HA000 / KD of altered form)
CE115HA000 H chain altered form Y58S (antibody, human IgG1, kappa, L234A L235A, N297A, name in Kabat numbering, one-arm antibody) heavy: QVQLVESGGGVVQPGRSLRLSCAASGFTFSNAWMHWVRQAPGKGLEWVAQIKAKSNNYATSYAESVKGRFTISRDDSKNSLYLQMNSLKTEDTAVYYCRYVHYGAYYGVDAWGQGTTVTVSSASTKGPSVFPLAPSSKSTSGGTAALGCLVKDYFPEPVTVSWNSGALTSGVHTFPAVLQSSGLYSLSSVVTVPSSSLGTQTYICNVNHKPSNTKVDKKVEPKSCDKTHTCPPCPAPEAAGGPSVFLFPPKPKDTLMISRTPEVTCVVVDVSHEDPEVKFNWYVDGVEVHNAKTKPREEQYASTYRVVSVLTVLHQDWLNGKEYKCKVSNKALPAPIEKTISKAKGQPREPQVYTLPPSRCELTKNQVSLSCAVKGFYPSDIAVEWESNGQPENNYKTTPPVLDSDGSFFLVSKLTVDKSRWQQGNVFSCSVMHEALHNHYTQKSLSLSPDYKDDDDK EPKSSDKTHTCPPCPAPELLGGPSVFLFPPKPKDTLMISRTPEVTCVVVDVSHEDPEVKFNWYVDGVEVHNAKTKPREEQYNSTYRVVSVLTVLHQDWLNGKEYKCKVSNKALPAPIEKTISKAKGQPREPQVCTLPPSRDELTKNQVSLWCLVKGFYPSDIAVEWESNGQPENNYKTTPPVLDSDGSFFLYSKLTVDKSRWQQGNVFSCSVMHEALHNRYTQKSLSLSP light: DIVMTQSPLSLPVTPGEPASISCRSSQSLVHSNRNTYLHWYQQKPGQAPRLLIYKVSNRFSGVPDRFSGSGSGTDFTLKISRVEAEDVGVYYCGQGTQVPYTFGQGTKLEIKRTVAAPSVFIFPPSDEQLKSGTASVVCLLNNFYPREAKVQWKVDNALQSGNSQESVTEQDSKDSTYSLSSTLTLSKADYEKHKVYACEVTHQGLSSPVTKSFNRGEC | 1.22
CE115HA000 H chain altered form Y59A (antibody, human IgG1, kappa, L234A L235A, N297A, name in Kabat numbering, one-arm antibody) heavy: QVQLVESGGGVVQPGRSLRLSCAASGFTFSNAWMHWVRQAPGKGLEWVAQIKAKSNNYATYAAESVKGRFTISRDDSKNSLYLQMNSLKTEDTAVYYCRYVHYGAYYGVDAWGQGTTVTVSSASTKGPSVFPLAPSSKSTSGGTAALGCLVKDYFPEPVTVSWNSGALTSGVHTFPAVLQSSGLYSLSSVVTVPSSSLGTQTYICNVNHKPSNTKVDKKVEPKSCDKTHTCPPCPAPEAAGGPSVFLFPPKPKDTLMISRTPEVTCVVVDVSHEDPEVKFNWYVDGVEVHNAKTKPREEQYASTYRVVSVLTVLHQDWLNGKEYKCKVSNKALPAPIEKTISKAKGQPREPQVYTLPPSRCELTKNQVSLSCAVKGFYPSDIAVEWESNGQPENNYKTTPPVLDSDGSFFLVSKLTVDKSRWQQGNVFSCSVMHEALHNHYTQKSLSLSPDYKDDDDK EPKSSDKTHTCPPCPAPELLGGPSVFLFPPKPKDTLMISRTPEVTCVVVDVSHEDPEVKFNWYVDGVEVHNAKTKPREEQYNSTYRVVSVLTVLHQDWLNGKEYKCKVSNKALPAPIEKTISKAKGQPREPQVCTLPPSRDELTKNQVSLWCLVKGFYPSDIAVEWESNGQPENNYKTTPPVLDSDGSFFLYSKLTVDKSRWQQGNVFSCSVMHEALHNRYTQKSLSLSP light: DIVMTQSPLSLPVTPGEPASISCRSSQSLVHSNRNTYLHWYQQKPGQAPRLLIYKVSNRFSGVPDRFSGSGSGTDFTLKISRVEAEDVGVYYCGQGTQVPYTFGQGTKLEIKRTVAAPSVFIFPPSDEQLKSGTASVVCLLNNFYPREAKVQWKVDNALQSGNSQESVTEQDSKDSTYSLSSTLTLSKADYEKHKVYACEVTHQGLSSPVTKSFNRGEC | 0.74
CE115HA000 H chain altered form Y59D (antibody, human IgG1, kappa, L234A L235A, N297A, name in Kabat numbering, one-arm antibody) heavy: QVQLVESGGGVVQPGRSLRLSCAASGFTFSNAWMHWVRQAPGKGLEWVAQIKAKSNNYATYDAESVKGRFTISRDDSKNSLYLQMNSLKTEDTAVYYCRYVHYGAYYGVDAWGQGTTVTVSSASTKGPSVFPLAPSSKSTSGGTAALGCLVKDYFPEPVTVSWNSGALTSGVHTFPAVLQSSGLYSLSSVVTVPSSSLGTQTYICNVNHKPSNTKVDKKVEPKSCDKTHTCPPCPAPEAAGGPSVFLFPPKPKDTLMISRTPEVTCVVVDVSHEDPEVKFNWYVDGVEVHNAKTKPREEQYASTYRVVSVLTVLHQDWLNGKEYKCKVSNKALPAPIEKTISKAKGQPREPQVYTLPPSRCELTKNQVSLSCAVKGFYPSDIAVEWESNGQPENNYKTTPPVLDSDGSFFLVSKLTVDKSRWQQGNVFSCSVMHEALHNHYTQKSLSLSPDYKDDDDK EPKSSDKTHTCPPCPAPELLGGPSVFLFPPKPKDTLMISRTPEVTCVVVDVSHEDPEVKFNWYVDGVEVHNAKTKPREEQYNSTYRVVSVLTVLHQDWLNGKEYKCKVSNKALPAPIEKTISKAKGQPREPQVCTLPPSRDELTKNQVSLWCLVKGFYPSDIAVEWESNGQPENNYKTTPPVLDSDGSFFLYSKLTVDKSRWQQGNVFSCSVMHEALHNRYTQKSLSLSP light: DIVMTQSPLSLPVTPGEPASISCRSSQSLVHSNRNTYLHWYQQKPGQAPRLLIYKVSNRFSGVPDRFSGSGSGTDFTLKISRVEAEDVGVYYCGQGTQVPYTFGQGTKLEIKRTVAAPSVFIFPPSDEQLKSGTASVVCLLNNFYPREAKVQWKVDNALQSGNSQESVTEQDSKDSTYSLSSTLTLSKADYEKHKVYACEVTHQGLSSPVTKSFNRGEC | 0.66
CE115HA000 H chain altered form Y59E (antibody, human IgG1, kappa, L234A L235A, N297A, name in Kabat numbering, one-arm antibody) heavy: QVQLVESGGGVVQPGRSLRLSCAASGFTFSNAWMHWVRQAPGKGLEWVAQIKAKSNNYATYEAESVKGRFTISRDDSKNSLYLQMNSLKTEDTAVYYCRYVHYGAYYGVDAWGQGTTVTVSSASTKGPSVFPLAPSSKSTSGGTAALGCLVKDYFPEPVTVSWNSGALTSGVHTFPAVLQSSGLYSLSSVVTVPSSSLGTQTYICNVNHKPSNTKVDKKVEPKSCDKTHTCPPCPAPEAAGGPSVFLFPPKPKDTLMISRTPEVTCVVVDVSHEDPEVKFNWYVDGVEVHNAKTKPREEQYASTYRVVSVLTVLHQDWLNGKEYKCKVSNKALPAPIEKTISKAKGQPREPQVYTLPPSRCELTKNQVSLSCAVKGFYPSDIAVEWESNGQPENNYKTTPPVLDSDGSFFLVSKLTVDKSRWQQGNVFSCSVMHEALHNHYTQKSLSLSPDYKDDDDK EPKSSDKTHTCPPCPAPELLGGPSVFLFPPKPKDTLMISRTPEVTCVVVDVSHEDPEVKFNWYVDGVEVHNAKTKPREEQYNSTYRVVSVLTVLHQDWLNGKEYKCKVSNKALPAPIEKTISKAKGQPREPQVCTLPPSRDELTKNQVSLWCLVKGFYPSDIAVEWESNGQPENNYKTTPPVLDSDGSFFLYSKLTVDKSRWQQGNVFSCSVMHEALHNRYTQKSLSLSP light: DIVMTQSPLSLPVTPGEPASISCRSSQSLVHSNRNTYLHWYQQKPGQAPRLLIYKVSNRFSGVPDRFSGSGSGTDFTLKISRVEAEDVGVYYCGQGTQVPYTFGQGTKLEIKRTVAAPSVFIFPPSDEQLKSGTASVVCLLNNFYPREAKVQWKVDNALQSGNSQESVTEQDSKDSTYSLSSTLTLSKADYEKHKVYACEVTHQGLSSPVTKSFNRGEC | 0.61
CE115HA000 H chain altered form Y59S (antibody, human IgG1, kappa, L234A L235A, N297A, name in Kabat numbering, one-arm antibody) heavy: QVQLVESGGGVVQPGRSLRLSCAASGFTFSNAWMHWVRQAPGKGLEWVAQIKAKSNNYATYSAESVKGRFTISRDDSKNSLYLQMNSLKTEDTAVYYCRYVHYGAYYGVDAWGQGTTVTVSSASTKGPSVFPLAPSSKSTSGGTAALGCLVKDYFPEPVTVSWNSGALTSGVHTFPAVLQSSGLYSLSSVVTVPSSSLGTQTYICNVNHKPSNTKVDKKVEPKSCDKTHTCPPCPAPEAAGGPSVFLFPPKPKDTLMISRTPEVTCVVVDVSHEDPEVKFNWYVDGVEVHNAKTKPREEQYASTYRVVSVLTVLHQDWLNGKEYKCKVSNKALPAPIEKTISKAKGQPREPQVYTLPPSRCELTKNQVSLSCAVKGFYPSDIAVEWESNGQPENNYKTTPPVLDSDGSFFLVSKLTVDKSRWQQGNVFSCSVMHEALHNHYTQKSLSLSPDYKDDDDK EPKSSDKTHTCPPCPAPELLGGPSVFLFPPKPKDTLMISRTPEVTCVVVDVSHEDPEVKFNWYVDGVEVHNAKTKPREEQYNSTYRVVSVLTVLHQDWLNGKEYKCKVSNKALPAPIEKTISKAKGQPREPQVCTLPPSRDELTKNQVSLWCLVKGFYPSDIAVEWESNGQPENNYKTTPPVLDSDGSFFLYSKLTVDKSRWQQGNVFSCSVMHEALHNRYTQKSLSLSP light: DIVMTQSPLSLPVTPGEPASISCRSSQSLVHSNRNTYLHWYQQKPGQAPRLLIYKVSNRFSGVPDRFSGSGSGTDFTLKISRVEAEDVGVYYCGQGTQVPYTFGQGTKLEIKRTVAAPSVFIFPPSDEQLKSGTASVVCLLNNFYPREAKVQWKVDNALQSGNSQESVTEQDSKDSTYSLSSTLTLSKADYEKHKVYACEVTHQGLSSPVTKSFNRGEC | 0.79

Each binder was assayed against T2, CD3 epsilon homodimer protein (UniProt P07766 23-126) (assay: SPR Biacore T200, CD3 epsilon homodimer immobilized; vs unaltered GLS3000;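 further: antibody variants flowed as analyte over CD3 epsilon homodimer amine-coupled to a CM4 chip, at 25 °C in HBS-EP+ running buffer, fitted with Biacore T200 Evaluation Software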).
T2 construct: construct not described; homodimer as printed; also called CD3 (CD3 epsilon)
T2 sequence (P07766 23-126): as the sequence (P07766 23-126) above

Binder | KD ratio to GLS3000 (Affinity up)
GLS3000 H27dA (Kabat) L chain altered form, one-arm antibody with CE115HA000 (antibody, human IgG1, kappa, L234A L235A, N297A, name in Kabat numbering, one-arm antibody) heavy: QVQLVESGGGVVQPGRSLRLSCAASGFTFSNAWMHWVRQAPGKGLEWVAQIKAKSNNYATYYAESVKGRFTISRDDSKNSLYLQMNSLKTEDTAVYYCRYVHYGAYYGVDAWGQGTTVTVSSASTKGPSVFPLAPSSKSTSGGTAALGCLVKDYFPEPVTVSWNSGALTSGVHTFPAVLQSSGLYSLSSVVTVPSSSLGTQTYICNVNHKPSNTKVDKKVEPKSCDKTHTCPPCPAPEAAGGPSVFLFPPKPKDTLMISRTPEVTCVVVDVSHEDPEVKFNWYVDGVEVHNAKTKPREEQYASTYRVVSVLTVLHQDWLNGKEYKCKVSNKALPAPIEKTISKAKGQPREPQVYTLPPSRCELTKNQVSLSCAVKGFYPSDIAVEWESNGQPENNYKTTPPVLDSDGSFFLVSKLTVDKSRWQQGNVFSCSVMHEALHNHYTQKSLSLSPDYKDDDDK EPKSSDKTHTCPPCPAPELLGGPSVFLFPPKPKDTLMISRTPEVTCVVVDVSHEDPEVKFNWYVDGVEVHNAKTKPREEQYNSTYRVVSVLTVLHQDWLNGKEYKCKVSNKALPAPIEKTISKAKGQPREPQVCTLPPSRDELTKNQVSLWCLVKGFYPSDIAVEWESNGQPENNYKTTPPVLDSDGSFFLYSKLTVDKSRWQQGNVFSCSVMHEALHNRYTQKSLSLSP light: DIVMTQSPLSLPVTPGEPASISCRSSQSLVASNRNTYLHWYQQKPGQAPRLLIYKVSNRFSGVPDRFSGSGSGTDFTLKISRVEAEDVGVYYCGQGTQVPYTFGQGTKLEIKRTVAAPSVFIFPPSDEQLKSGTASVVCLLNNFYPREAKVQWKVDNALQSGNSQESVTEQDSKDSTYSLSSTLTLSKADYEKHKVYACEVTHQGLSSPVTKSFNRGEC | 2.57
